How the values were obtained:
[1] = test system: EcoRI restriction endonuclease; settings: highest Ka measured in this report; optical-trap unzipping (UFAPA); 10 mM HEPES pH 7.6, 1 mM EDTA, no Mg2+, 106-262 mM Na+, 23 C; Ka decreases with Na+ …
[2] = biological target: T1, BsoBI restriction endonuclease (UniProt P70985 P70985:2-323); assay: optical-trap unzipping, dynamic force spectroscopy: f_beta 4.04 +/- 0.14 pN, ln(toff in s) 4.98 +/- 0.27, N=243; BsoBI 0.7 nM, 50 mM Na phosphate pH 7.0, 50 mM; settings: tags: New England BioLabs, commercial grade, used without further purification; chain copies: 2 (stated, 72 kD dimer); label: digoxigenin and biotin (via anchoring segment and insert duplex)
T1 sequence: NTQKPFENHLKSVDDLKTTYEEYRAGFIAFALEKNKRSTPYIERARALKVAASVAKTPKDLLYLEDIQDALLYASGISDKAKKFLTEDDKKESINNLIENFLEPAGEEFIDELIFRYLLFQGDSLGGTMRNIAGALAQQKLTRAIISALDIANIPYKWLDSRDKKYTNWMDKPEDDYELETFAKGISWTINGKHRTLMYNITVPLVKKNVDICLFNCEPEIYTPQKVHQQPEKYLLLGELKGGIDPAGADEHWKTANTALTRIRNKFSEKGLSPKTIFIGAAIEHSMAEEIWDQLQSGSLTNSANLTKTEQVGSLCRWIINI
Experimental: (§1) Unzipping Buffer Conditions. Experiments with BsoBI and XhoI were performed at room temperature (23° C.) in a buffer containing 50 mM sodium phosphate buffer pH 7.0, 50 mM NaCl, 0.02% Tween-20, 10 mM EDTA. To facilitate better comparisons of future EcoRI results with previously reported results, mapping and equilibrium constants studies of EcoRI were performed at room temperature (23° C.) in a buffer containing 10 mM HEPES, pH 7.6, 1 mM EDTA, 50 μM DTT, 100 μg/ml BSA, 500 μg/ml Blotting Grade Blocker (Bio-Rad) and NaCl added to produce total Na+concentrations of 106 to 262 mM. […] The Hepes buffer is similar to the buffer used by Ha et al., “Role of the Hydrophobic Effect in Stability of Site-Specific Protein-DNA Complexes,” J. Mol. Biol. 209:801-816 (1989), the entire disclosure of which is hereby incorporated by reference in its entirety, for temperature dependence studies of EcoRI binding to its site on pBR322. Because of the tendency for EcoRI to aggregate at lower ionic strengths (Jen-Jacobson et al., “Coordinate Ion Pair Formation Between EcoRI Endonuclease and DNA,” J. Biol. Chem. 258:14638-14646 (1983), the entire disclosure of which is hereby incorporated by reference in its entirety), the EcoRI mapping data were taken at 131 mM total Na+ concentration. […]

[3] = biological target: T1, BsoBI restriction endonuclease; assay: optical-trap unzipping, dynamic force spectroscopy: f_beta 4.36 +/- 0.53 pN, ln(toff in s) 7.6 +/- 1.1, N=51; BsoBI 0.7 nM, 50 mM Na phosphate pH 7.0, 50 mM NaCl, 10 mM EDTA, no Mg2+, 23 C; settings: tags: New England BioLabs, commercial grade, used without further purification; chain copies: 2 (stated, 72 kD dimer); label: digoxigenin and biotin (via anchoring segment and insert duplex)
Experimental: as §1

## pBR322 EarI large fragment unzipping segment with single EcoRI site
[1]
  Ka: 1e+11 M⁻¹

B1: BsoBI alpha site (dsDNA)
DNA 1: TTCCTCGGGAAT
DNA 2: ATTCCCGAGGAA
[2]
  binding result: binds

B2: beta site (BsoBI/XhoI) (dsDNA)
DNA 1: AAACTCGAGAGA
DNA 2: TCTCTCGAGTTT
[3]
  binding result: binds
